Results: patent publication US20260232824A1 (CHAMPIONS ONCOLOGY, published 2026)
Positions count from the first letter of the chain named.

T1: human CD180/human MD-1 on HEK293 cells (human, UniProt Q99467 24-661; O95711 21-162)
T1 construct: whole, on cells; Complex co-expressed on HEK293 cells; also called HEK293 expressing CD180/MD-1; HEK293 CD180/MD-1 cells
T1 sequence (looked up) 1: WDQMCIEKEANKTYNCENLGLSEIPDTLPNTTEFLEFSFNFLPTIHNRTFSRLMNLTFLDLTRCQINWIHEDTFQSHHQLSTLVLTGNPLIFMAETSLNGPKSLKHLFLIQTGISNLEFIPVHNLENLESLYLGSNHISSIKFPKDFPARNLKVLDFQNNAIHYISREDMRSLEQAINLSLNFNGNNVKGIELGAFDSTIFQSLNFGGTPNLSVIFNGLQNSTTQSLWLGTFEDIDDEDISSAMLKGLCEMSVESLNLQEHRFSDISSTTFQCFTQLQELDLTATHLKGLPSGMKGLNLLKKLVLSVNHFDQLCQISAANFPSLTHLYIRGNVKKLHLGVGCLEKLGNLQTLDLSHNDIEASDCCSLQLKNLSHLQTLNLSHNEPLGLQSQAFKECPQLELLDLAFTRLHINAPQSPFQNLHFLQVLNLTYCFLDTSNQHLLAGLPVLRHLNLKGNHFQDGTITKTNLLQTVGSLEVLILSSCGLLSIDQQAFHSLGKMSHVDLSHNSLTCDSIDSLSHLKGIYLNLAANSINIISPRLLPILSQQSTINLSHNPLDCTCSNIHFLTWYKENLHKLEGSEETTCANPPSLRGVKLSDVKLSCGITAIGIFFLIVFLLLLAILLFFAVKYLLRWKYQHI
T1 sequence (looked up) 2: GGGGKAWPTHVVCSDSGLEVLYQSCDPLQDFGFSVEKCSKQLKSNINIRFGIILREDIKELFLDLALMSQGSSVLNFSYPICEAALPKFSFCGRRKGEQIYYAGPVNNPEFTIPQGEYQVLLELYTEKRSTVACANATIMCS

T2: human MD-1 on HEK293 cells (human, UniProt O95711 21-162)
T2 construct: whole, on cells; also called HEK293 expressing MD-1 only; MD-1 cells
T2 sequence (looked up): T1 sequence (looked up) 2

T3: human CD180 extracellular domain (ECD) HIS-tagged protein (Sino Biological, 11370-H08H) (human, UniProt Q99467 24-626)
T3 construct: extracellular domain; Bought protein; also called soluble human CD180 from Sino Biologics; human CD180(ECD)-HIS; not shown: His tag
T3 sequence (looked up): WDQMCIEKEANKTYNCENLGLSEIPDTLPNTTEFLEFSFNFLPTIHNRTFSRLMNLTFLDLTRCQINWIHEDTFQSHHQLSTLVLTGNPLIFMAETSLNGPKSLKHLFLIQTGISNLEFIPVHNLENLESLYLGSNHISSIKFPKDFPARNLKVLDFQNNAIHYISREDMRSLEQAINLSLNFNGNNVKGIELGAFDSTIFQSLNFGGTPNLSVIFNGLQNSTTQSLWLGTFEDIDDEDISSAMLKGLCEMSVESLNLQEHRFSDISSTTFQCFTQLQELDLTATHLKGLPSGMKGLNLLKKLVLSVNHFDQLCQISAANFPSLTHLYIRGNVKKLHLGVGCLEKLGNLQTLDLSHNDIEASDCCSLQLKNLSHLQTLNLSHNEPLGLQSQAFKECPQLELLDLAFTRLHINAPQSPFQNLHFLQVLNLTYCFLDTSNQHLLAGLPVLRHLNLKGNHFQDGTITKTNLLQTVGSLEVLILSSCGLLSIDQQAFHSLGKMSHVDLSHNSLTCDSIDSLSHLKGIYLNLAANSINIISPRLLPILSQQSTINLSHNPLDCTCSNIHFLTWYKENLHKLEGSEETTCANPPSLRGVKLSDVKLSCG

T4: human CD180 extracellular domain (ECD) HIS-tagged protein (Creative Biomart, CD180-3900H) (human, UniProt Q99467 24-626)
T4 construct: extracellular domain; Bought protein; also called soluble human CD180 from Creative Biomart; not shown: His tag
T4 sequence (looked up): T3 sequence (looked up)

B1: Ab-014 (antibody, human IgG1, kappa, V domains shown)
VH: EVQLVESGGGLVQPGRSLRLSCTTSGFTFADYAMHWVRQTPGKGLEWVSGISWNGVTIDYADSVKGRFTISRDIAKNSLYLQMNSLRAEDTALYYCAKDIAYSRGYFQHWGQGTLVTVSS
VL: not shown
notes: also called CHAMPmAB-014
B2: Ab-008 (antibody, human IgG1, kappa, V domains shown)
VH: B1 VH with K43Q, V56G, I58M, D59G
VL: DIQMTQSPSSLSASVGDRVTITCRASQGIRNDLGWYQQKPGKAPKLLIYAASTLQSGVPSRFSGSGSGTDFTLTISSLQPEDVATYYCQKYNSAPFTFGPGTKVDIKR
B3: Ab-016 (antibody, human IgG1, kappa, V domains shown)
VH: B1 VH with V56G, D59G
VL: not shown
B4: Ab-012 (antibody, human IgG1, kappa, V domains shown)
VH: B1 VH with K43Q, V56G, I58M, D59G
VL: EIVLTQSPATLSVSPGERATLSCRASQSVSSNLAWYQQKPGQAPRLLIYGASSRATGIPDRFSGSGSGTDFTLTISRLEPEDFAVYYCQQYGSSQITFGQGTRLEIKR
B5: Ab-010 (antibody, human IgG1, kappa, V domains shown)
VH: B1 VH with R16G, T24S, V56G, I58F, A88V
VL: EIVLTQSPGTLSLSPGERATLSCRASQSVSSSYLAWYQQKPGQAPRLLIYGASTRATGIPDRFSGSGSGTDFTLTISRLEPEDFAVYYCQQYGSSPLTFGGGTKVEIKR
B6: Ab-017 (antibody, human IgG1, kappa, V domains shown)
VH: B1 VH with K43Q, V56G, I58M, D59G
VL: not shown
B7: Ab-007 (antibody, human IgG1, kappa, V domains shown)
VH: EVQLVESGGGVVRPGGSLRLSCAASGFTFDDYAMSWVRQAPGKGLEWVSDINWNGGTTSYADSVKGRFTISRDNAKNSLFLQMNSLRAEDTALYYCARKGRDTVVVKGYYYFSYYMDVWGKGSTVTVSS
VL: not shown
notes: also called ChampmAb-007; Champ mAb-007
B8: Ab-003 (antibody, human IgG1, kappa, V domains shown)
VH: B1 VH with K43Q, V56G, I58M, D59G
VL: not shown
B9: Ab-004 (antibody, human IgG1, kappa, V domains shown)
VH: B1 VH with R16G
VL: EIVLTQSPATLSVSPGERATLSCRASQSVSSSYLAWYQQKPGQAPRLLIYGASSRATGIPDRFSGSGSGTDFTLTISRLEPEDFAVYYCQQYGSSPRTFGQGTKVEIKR
notes: also called CHAMPmAB-004
B10: Ab-005 (antibody, human IgG1, kappa, V domains shown)
VH: B1 VH with R16G, V56G, D59G
VL: not shown
B11: Ab-002 (antibody, human IgG1, kappa, V domains shown)
VH: EVQLVESGGGLVQPGGSLRLSCAASGFTSVDYAMHWVRQAPGKGLEWVSYISWNNNNIGYADSVKGRFTISRDNAKNSLYLHMSSLRAEDTALYYCAKDIAYNTGYFDYWGQGTLVTVSS
VL: not shown
B12: Ab-006 (antibody, human IgG1, kappa, V domains shown)
VH: EVQLVESGGGLVKPGGSLRLSCTASGFTFDDYDMTWVRQAPGKGLEWVSGINWNGGNTDYADSVKGRFTISRDNTKNSLYLQMNSLRAEDTALYYCARKGRDIVVVKGFYYHYYYMDVWGKGITVTVSS
VL: not shown
notes: also called ChampmAb-006; Champ mAb-006
B13: Ab-009 (antibody, human IgG1, kappa, V domains shown)
VH: B1 VH
VL: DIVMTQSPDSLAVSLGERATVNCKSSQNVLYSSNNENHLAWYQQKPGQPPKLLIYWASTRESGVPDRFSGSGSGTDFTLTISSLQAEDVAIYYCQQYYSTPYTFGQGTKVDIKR

target: T1, human CD180/human MD-1 on HEK293 cells; test: cell binding on HEK293 CD180/MD-1 cells (FIG. 14G)
Description: Cells were then incubated with the secondary antibody R-Phycoerythrin AffiniPure Goat Anti-Human IgG (Jackson Immunoresearch 109-115-098). The data was acquired on Intellicyt iQue3 VBR. Median fluorescence intensities (MFI) were plotted against the concentrations of the anti-CD180 antibodies.

Which EC50 does the source give for B1 here?
Its EC50 is 4 nM.

target: T1, human CD180/human MD-1 on HEK293 cells; test: cell-based ELISA / flow cytometry, HEK293 expressing CD180/MD-1, 100 nM and 30 nM
Description: (§1) FIGS. 1A-IC show the cell binding properties of the anti-CD180 antibodies. All CHAMP mAbs were subjected to binding assays via cell-based ELISA. FIG. 1A: Antibodies were screened at […] and 30 nM in a cell-based ELISA using HEK293 expressing CD180/MD-1. […] P84, mouse IgG, and 2nd only mouse were negative controls. […] FIG. 1B: Antibodies were screened at […] in cell-based ELISA using HEK293 expressing MD-1 only. […] FIG. 1C: Antibodies were screened at […] in cell-based ELISA using HEK293 parental cell line.
(§2) All mAbs were subjected to cell binding screen detected on a flow cytometer. Engineered cells expressing CD180/MD-1, MD-1, or parental HEK cells were used to test for binding of the antibodies. Antibodies at a concentration of 100 nM or 30 nM were incubated with cells at 4° C. for 45 min. R-Phycoerythrin AffiniPure Goat Anti-Human IgG (Jackson Immunoresearch 109-115-098) was used as the secondary antibody. The binding of antibodies on cells were detected on Intellicyt iQue3 VBR.

Does B2 bind?
Result: binds

Does B3 bind?
Result: binds

Does B4 bind?
Result: binds

Does B5 bind?
Result: binds

Does B6 bind?
Result: binds

Does B7 bind?
Result: binds

target: T1, human CD180/human MD-1 on HEK293 cells; test: cell binding screen by flow cytometry, cells expressing CD180/MD-1, 100 nM or 30 nM
Description: as §1, §2

Does B8 bind?
Result: binds

Does B9 bind?
Result: binds

Does B10 bind?
Result: binds

Does B11 bind?
Result: binds

Does B12 bind?
Result: binds

target: T2, human MD-1 on HEK293 cells; test: cell binding screen by flow cytometry (called cell-based ELISA), HEK293 expressing MD-1 only
Description: as §1, §2

Does B2 bind?
Result: no binding (tested: 100 nM)

Does B3 bind?
Result: no binding (tested: 100 nM)

Does B13 bind?
Result: no binding (tested: 100 nM)

Does B4 bind?
Result: no binding (tested: 100 nM)

Does B5 bind?
Result: no binding (tested: 100 nM)

Does B8 bind?
Result: no binding (tested: 100 nM)

Does B6 bind?
Result: no binding (tested: 100 nM)

Does B1 bind?
Result: no binding (tested: 100 nM)

Does B9 bind?
Result: no binding (tested: 100 nM)

Does B10 bind?
Result: no binding (tested: 100 nM)

Does B11 bind?
Result: no binding (tested: 100 nM)

Does B12 bind?
Result: no binding (tested: 100 nM)

Does B7 bind?
Result: no binding (tested: 100 nM)

target: T3, human CD180 extracellular domain (ECD) …; test: SPR, antibody captured in a bivalent format, soluble human CD180 from Sino Biologics passed over (FIG. 3A)
Description: (§3) FIGS. 3A-3C show intrinsic binding affinity of the antibodies as determined by Surface Plasmon Resonance (SPR) assay. Antibody was captured in a bivalent format and soluble human CD180 from Sino Biologics (FIG. 3A), Creative Biomart (FIG. 3B), or soluble rhesus CD180 (FIG. 3C) was passed over the captured antibody. […] Kon, koff and KD are indicated for each condition.
(§4) Surface Plasmon Resonance (SPR) was used to identify intrinsic binding affinity. Kinetic experiments were performed on Carterra LSA with a running buffer of PBS pH 7.40, 1% BSA, 0.05% Tween20. Antibodies were captured on an anti-human Fc capture chip prepared with a HC30M chip. […] For each concentration, there was 5 min association followed by 15 min dissociation. Results were processed and analyzed in Carterra LSA Kinetics Software. The kinetic data was referenced with the interstitial reference spots and double-referenced to a buffer cycle, and then fit globally to a 1:1 binding model to determine their apparent association and dissociation kinetic rate constants (kₒₙ and koff values). The ratio koff/kₒₙ was used to derive the KD value of each antigen/mAb interaction, i.e., KD=koff/kₒₙ.

Does B12 bind?
Result: binds

Does B7 bind?
Result: binds

target: T4, human CD180 extracellular domain (ECD) …; test: SPR, antibody captured in a bivalent format, soluble human CD180 from Creative Biomart passed over (FIG. 3B)
Description: as §3, §4

Does B12 bind?
Result: binds

Does B7 bind?
Result: binds
